Experimental data published in patent publication US20170233441A1.

Columns and labels:
[1] = target: BG505 SOSIP.664 trimer+sCD4 complex (HIV-1 strain BG505; human) (UniProt P01730)
[2] = target: BG505 SOSIP.664 HIV-1 Env ectodomain trimer (HIV-1 strain BG505); experiment: crystal structure, interfaces between protomers
[3] = target: gp120 subunit of BG505 SOSIP.664 (HIV-1 strain BG505); experiment: crystal structure; includes 216 Å^2 from glycan-protein interactions
[4] = target: gp41 ectodomain subunit of BG505 SOSIP.664 (HIV-1 strain BG505); experiment: crystal structure, interfaces between protomers
[5] = target: gp120 subunit of BG505 SOSIP.664 (HIV-1 strain BG505); experiment: crystal structure, interfaces between protomers

In the case of 3074 antibody, the t1/2 of CD4-induced exposure of the epitope [1] is reported as 4.2 h.
“BG505 SOSIP.664 HIV-1 Env ectodomain trimer” gave a buried surface of the trimer interfaces, contributed by each protomer [2] of 3140 Å^2.
In the case of “gp41 ectodomain subunit of BG505 SOSIP.664”, the buried surface within a single protomer [3] is reported as 5270 Å^2 and the buried surface of the gp41-gp41 trimer interface [4] is reported as 1920 Å^2.
gp120 subunit of BG505 SOSIP.664 gave a buried surface of the gp120-gp120 trimer interface [5] of 861 Å^2 and a buried surface of the gp120-gp41 interface between protomers [4] of 360 Å^2.
